# Values of other authors, collected in patent US7547701B2, “Haloalkyl containing compounds as cysteine protease inhibitors” (Virobay, Inc., priority 2003, dated 2009).
# Conditions: in clinical trials
substance,measurement,value
OKT3: murine monoclonal antibody directed towards CD-3 domain of activated T-cells,patients administered OKT3 that produce antibodies versus the therapy,20-40%
